Data on one protein can be found in FireProtDB (doi:10.1021/bi972395d).

The conditions of the data set: Homo sapiens; pH 7.8; Thermal; DSC; potassium phosphate 2 mM; transition: 2; reversible: Yes; whole UniProt chain shown.

B1: Superoxide dismutase [Mn], mitochondrial wild type, P04179 (protein)
chain: MLSRAVCGTSRQLAPVLGYLGSRQKHSLPDLPYDYGALEPHINAQIMQLHHSKHHAAYVNNLNVTEEKYQEALAKGDVTAQIALQPALKFNGGGHINHSIFWTNLSPNGGGEPKGELLEAIKRDFGSFDKFKEKLTAASVGVQGSGWGWLGFNKERGHLQIAACPNQDPLQGTTGLIPLLGIDVWEHAYYLQYKNVRPDYLKAIWNVINWENVTERYMACKK
As a reminder, the Tm is the temperature at the midpoint of the melting transition. Turning to B1, the Tm came out at 88.9 °C and the “unfolding enthalpy (calorimetric)” value stood at 90.6 kcal/mol.
